Test results from patent US20230279128A1 (SYNTHEKINE, published 2023).

T1: extracellular domain of mIFNgR2 (mouse)
T1 construct: also called mIFNgR2 ECD; mouse IFNgR2 extracellular domain
T1 chain: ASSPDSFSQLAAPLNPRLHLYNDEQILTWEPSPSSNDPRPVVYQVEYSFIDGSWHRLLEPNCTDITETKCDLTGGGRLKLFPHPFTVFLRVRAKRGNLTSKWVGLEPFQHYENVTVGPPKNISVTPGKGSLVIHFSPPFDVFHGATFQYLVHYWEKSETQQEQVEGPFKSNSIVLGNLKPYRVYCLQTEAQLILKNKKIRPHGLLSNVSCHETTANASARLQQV

T2: extracellular domain of hIFNgR2 (human, UniProt P38484 28-247)
T2 construct: also called hIFNgR2 ECD; hIFNgR2-ECD
T2 sequence: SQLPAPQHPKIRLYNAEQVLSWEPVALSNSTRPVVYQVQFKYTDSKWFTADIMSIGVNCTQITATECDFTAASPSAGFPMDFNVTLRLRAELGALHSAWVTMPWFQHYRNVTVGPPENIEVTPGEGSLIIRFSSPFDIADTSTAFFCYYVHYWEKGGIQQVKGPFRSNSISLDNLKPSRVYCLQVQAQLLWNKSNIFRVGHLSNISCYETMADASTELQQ


Legend:
[1] = target: T1, extracellular domain of mIFNgR2; experiment: flow cytometry, cross-reactivity
[2] = target: T2, extracellular domain of hIFNgR2; experiment: phage biopanning and periplasmic extract ELISA (PE-ELISA)
Method: Upon completion of the biopanning of Example 3, three 96-well plates of individual phage clones were isolated in order to perform periplasmic extract ELISA (PE-ELISA) on IFNgR2 coated plates to identify positive VHH binders that selectively bound IFNgR2. A 96-well plate was coated with IFNgR2 and PBS under the same conditions. Next, wells were blocked at 37° C. for 1 h. Then, 100 μl of extracted antibodies was added to each well and incubated for 1 h. Subsequently, 100 μl of anti-tag polyclonal antibody conjugated to HRP was added to each well and incubated at 37° C. for 1 h. Plates were developed with TMB substrate. The reaction was stopped by the addition of H2SO4. Absorbance at 450 nm was read on a microtiter plate reader. Antibodies with absorbance of the antigen-coated well at least threefold greater than PBS-coated control were considered to provide specific binding to IFNgR2. Positive clones were sequenced, and sequences analyzed to identify unique clonotypes

| Binder | binding result [1] | binding result [2] |
| --- | --- | --- |
| DR944 (VHH) VHH: QVQLVESGGGLVQAGDSLRLSCAASGRTFTFSTHNMGWFRQAPGKEREFVGGIMWTSRASYADSVKGRFTVSRDNAKNTVYLQMNSLKPEDTAVYYCAAAWYGNSGASYDYWGQGTQVTVSS | binds | binds |
| DR942 (VHH) VHH: QVQLVESGGGLVQAGGSLRLSCVASGRTFTGYAMGWFRQAPGKEREFVAVITWSGATTYYSASVKGRFTLSRDNAKNTVYLQMNSLKSEDTAVYYCAIRIRDGVSPENPNEYGYWGQGTQVTVSS | binds | binds |
| DR927 (VHH) VHH: QVQLVESGGGLVQAGGSLRLSCAASGRTFTSYAMNWFRQAPGKEREFVAAISWSSGNTYVADSVKGRFAISRDKAKNTMYLQMNSLAPEDTAVYYCAATTIATMSDEYTYWGQGTQVTVSS | binds | binds |
| DR941 (VHH) VHH: QVQLVESGGGLVEAGGSLRLACAASGSIFRLNLMGWYRQAPGKQRELVAHVGTTGNTAYADSVKGRFTISKDDAKNMVFLQMNSLKPEDTAVYYCYADRWGQFSWGQGTQVTVSS | binds | binds |
| DR928 (VHH) VHH: QVQLVESGGGLVQAGGSLRLSCAASGRTFSNYRMGWFRQAPGKEREFVAAISRGGGTTLYADSVKGRFTISRDNAKNTVDLQMNRLKPEDTAVYFCAAGDFSTTWDEYNYWGQGTQVTVSS | binds | binds |

Results, then the binder that gave them:

| binding result [1] | binding result [2] | Binder |
| --- | --- | --- |
|  | binds | DR939 (VHH) VHH: EVQLVESGGGLVQAGGSMRLSCANSGRTFGTYAMGWFRQSPGKERERVASIDRDGSMSYYADSVKGRFTISGDNAKNTVYLQMNSLKPEDTAVYYCAASRRAVISLQTVDYWGQGTQVTVSS |
| binds | binds | DR937 (VHH) VHH: QVQLVESGGGLVQPGGSLRLSCAASGRTFRSYSMGWFRQAPGKEREFVAAISWYSGTTYYADPVKGRFTISRDDAKNTLYLQMNSLKPEDTAVYYCAANEIATMESSNDYWGQGTQVTVSS |
| binds | binds | DR938 (VHH) VHH: QVQLVESGGGLVQPGGSLRLSCTASGRPRTTYAMGWFRQAPGKEREIVAAISKAGGSTYVADSAKGRFAISKDNAKNTVYLQMNSLKPEDTAVYYCAARAGFAAQIFEYDYWGQGTLVTVSS |
| binds | binds | DR945 (VHH) VHH: LVESGGGLVQLVQAGGSLRLSCAASGRTFSGYNMGWFRQAPGKEREFVAAIAWAGSRTYYTDSVKGRFTISRDNAKNTMYLQMNTLRPEDTAVYYCAAHDETYYRLDRVDLYTHWGQGTQVTVSS |
| binds | binds | DR940 (VHH) VHH: EVQLVESGGRLVQTGGSLRLSCAASGRTFSNYAMGWFRQAPGKEREFVAAISWYSGNTYYADSVKGRFTISRDNAKNTMYLQMNSLKPEDTAVYYCAANQIATMISVGDYWGQGTLVTVSS |
| binds | binds | DR943 (VHH) VHH: QVQLVESGGGLVQAGGSLRLSCVASGRTVGYGMAWFRQAPGKQRDVVAAITWSGTSTYYPDSVKGRFTISRDNAKNTMYLQMSSLKPEDTAVYYCAAGSRRRVGVDVGGYDYWGQGTQVTVSS |
| binds | binds | DR936 (VHH) VHH: EVQLVESGGGLVQAGGSLRLSCAASGRTFSSVAMAWFRQAPGKEREFVSAISSGGGSTDYADSVKGRFTISKDNAKNTMYLQMDSLKPEDTAVYYCAARDYSSRRYYQSRYEYDLWGLGTQVTVSS |
